Test results: article PMC6406459, “Hyperoxidation of Peroxiredoxin 6 Induces Alteration from Dimeric to Oligomeric State” (Antioxidants, 2019)

Molecular target: the molecule itself
Assay: native gel or EMSA; native PAGE, continuous 7.5% polyacrylamide gel, non-reducing and non-denaturing; samples in 50 mM Tris-HCl, 100 mM NaCl pH 7.4; running buffer 30 mM beta-alanine, 20 mM lactic acid pH 3.8, 180 V, 2 h, reverse polarity; markers bovine albumin and horse ferritin

Protein | stoichiometry N | binding result
reduced rat peroxiredoxin 6 (Cys47-SH) (enzyme, UniProt O35244 1-224, looked up, Peroxiredoxin 6, rat, UniProtKB O35244, 224 amino acids as in the cDNA, without any vector derived residues; Kept reduced by 1 mM DTT in 50 mM Tris-HCl, 100 mM NaCl pH 7.4; also called reduced Prdx6; rPrdx6; source: reduced with 1 mM DTT; not shown: intein tag, C-terminal, cleaved) MPGGLLLGDEAPNFEANTTIGHIRFHDFLGDSWGILFSHPRDFTPVCTTELGRAAKLAPEFAKRNVKLIALSIDSVEDHFAWSKDINAYNGAAPTEKLPFPIIDDKDRDLAILLGMLDPAEKDEKGMPVTARVVFIFGPDKKLKLSILYPATTGRNFDEILRVVDSLQLTASNPVATPVDWKKGESVMVLPTLPEEEAKQLFPKGVFTKELPSGKKYLRYTPQP | 2 | 
hyperoxidized rat peroxiredoxin 6 (C47 sulfinic acid or sulfonic acid) (enzyme, UniProt O35244 1-224, looked up, C47 sulfinic acid or sulfonic acid (Cys47-SO2H or Cys47-SO3H), Peroxiredoxin 6, rat, UniProtKB O35244, 224 amino acids as in the cDNA, without any vector derived residues; Cys47 hyperoxidized by H2O2; Same purified protein as m1, treated with 500 uM H2O2 in 50 mM Tris-HCl, 100 mM NaCl pH 7.4; also called hyperoxidized Prdx6; oxidized Prdx6; source: incubated with 500 uM H2O2 at room temperature for 30 min to 1 h; not shown: intein tag, C-terminal, cleaved) MPGGLLLGDEAPNFEANTTIGHIRFHDFLGDSWGILFSHPRDFTPVCTTELGRAAKLAPEFAKRNVKLIALSIDSVEDHFAWSKDINAYNGAAPTEKLPFPIIDDKDRDLAILLGMLDPAEKDEKGMPVTARVVFIFGPDKKLKLSILYPATTGRNFDEILRVVDSLQLTASNPVATPVDWKKGESVMVLPTLPEEEAKQLFPKGVFTKELPSGKKYLRYTPQP |  | binds
